± gives the uncertainty stated by the source.
Test: protein stability index of a GFP-peptide fusion (yeast GPS) (PSI 1-4); higher = more stable; sorted into four equal gates, so the index is relative within each strain
Outline: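 Each library plasmid carries Cherry plus GFP with a tiled 17-residue yeast protein peptide fused downstream, and the pooled library was carried in yeast. Mid-log cultures in leucine-free medium were sorted into four equal gates by GFP/Cherry ratio. Reads from Illumina sequencing of PCR-amplified plasmids from each gate were assigned to strains by barcodes. Per peptide, the protein stability index was computed as the summed products of gate read frequency and gate number.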

Row | Sequence | protein stability index (doa10∆) | protein stability index (pdr5∆) | protein stability index (san1∆) | protein stability index (ubr1∆)
1 | NNDDNGNNNNNNSGNDN [MED2] | 2.93 ± 0.043 | 2.99 ± 0.04 | 3.01 ± 0.034 | 3.05 ± 0.041
2 | RRANFYKENEAMLRENI [SNF12] | 3.29 ± 0.094 | 3.2 ± 0.14 | 3.33 ± 0.074 | 3.39 ± 0.11
3 | QLGYGKFLILNENPINK [NUT1] | 2.92 ± 0.12 | 2.53 ± 0.12 | 2.71 ± 0.077 | 2.84 ± 0.13
4 | FLRKATAFNKTRGPFHF [RPL16B] | 3 ± 0.042 | 3.12 ± 0.045 | 2.78 ± 0.043 | 3.08 ± 0.033
5 | ELIVSEEIPINSSEQES [SIR3] | 2.28 ± 0.054 | 2.24 ± 0.051 | 2.82 ± 0.053 | 2.18 ± 0.037
6 | GLFEKSTVSANHSNNDI [BRN1] | 3.12 ± 0.14 | 2.95 ± 0.11 | 3.19 ± 0.08 | 3.11 ± 0.12
7 | ELVKSYSWLLFEASCME [YJR042W/NUP85] | 2.96 ± 0.28 | – | 3.44 ± 0.16 | 2.41 ± 0.19
8 | GSGAPVYLTAVLEYLAA [HTA1] | 1.64 ± 0.076 | 1.7 ± 0.077 | 1.55 ± 0.12 | 1.75 ± 0.045
9 | SYEYYNIKHKHTSIRET [SMC2] | 1.61 ± 0.047 | 1.83 ± 0.066 | 1.67 ± 0.11 | 1.87 ± 0.049
10 | PPEVTSSNCHVRQKIKT [POP1] | 3.05 ± 0.071 | 3.1 ± 0.072 | 2.78 ± 0.073 | 3.01 ± 0.045
11 | PAGKQVEISLVNGAKNL [FAS1] | 2.63 ± 0.27 | 3.23 ± 0.23 | – | 2.31 ± 0.19
12 | FQNSYKPALKVSKEGLY [YMR129W/POM152] | 2.42 ± 0.22 | 3.12 ± 0.11 | 3.02 ± 0.082 | 3.07 ± 0.1
13 | KGSVAAKTFLEKRWNDE [PRE8] | 2.38 ± 0.18 | 1.28 ± 0.17 | – | –
14 | QMAKDVTTFLNWCAEPE [CYT1] | 3.4 ± 0.068 | 3.25 ± 0.067 | 3.04 ± 0.098 | 3.46 ± 0.073
15 | FTQLKKNIPKTRYNRDY [SNU114] | 2.48 ± 0.052 | 2.59 ± 0.056 | 2.98 ± 0.04 | 2.79 ± 0.051
16 | ISTHLKTICNLLISDTE [IRR1] | 1.64 ± 0.05 | 1.86 ± 0.059 | 1.88 ± 0.088 | 1.5 ± 0.032
17 | LQNIVMDCTKEEEATMT [YIL149C/MLP2] | 3.4 ± 0.12 | 3.3 ± 0.1 | 3.31 ± 0.086 | 2.98 ± 0.089
18 | AIVCYILFELYKIKGRN [SRP72] | 2.01 ± 0.056 | 2.13 ± 0.059 | 2.69 ± 0.059 | 2.15 ± 0.054
19 | SSSGNTWSLILNECLKT [YML031W/NDC1] | 1.85 ± 0.066 | 1.73 ± 0.084 | 1.48 ± 0.13 | 1.52 ± 0.061
20 | FNVEYFAKEKLTKKEKK [RPL6A] | 2.23 ± 0.084 | 1.68 ± 0.066 | 1.44 ± 0.12 | 1.9 ± 0.073
21 | ATGFGAHMANPLLRKVV [PRE4] | 3.29 ± 0.14 | 3.02 ± 0.13 | 1.58 ± 0.17 | 3.34 ± 0.18
22 | NFLSVITNKHQEGLAKF [RPN2] | – | – | – | 3.17 ± 0.14
23 | AFKKIDAITVKDVKAWA [COR1] | 2.06 ± 0.076 | 1.91 ± 0.072 | 1.83 ± 0.14 | 1.9 ± 0.039
24 | DDFEVNVASLVRVQFQF [GRR1] | 2.57 ± 0.059 | 1.77 ± 0.089 | 1.78 ± 0.18 | 1.5 ± 0.089
25 | AALYKEVYNVIASDGSY [RPO21] | 2.34 ± 0.089 | 1.77 ± 0.1 | 2.22 ± 0.15 | 3.06 ± 0.12
26 | AGKVKSQTPKVEKTEKP [RPS30A] | 3.18 ± 0.078 | 2.9 ± 0.093 | 2.95 ± 0.072 | 2.93 ± 0.055
27 | RWKRFTIGAIFLNHAFD [CDC53] | 2.54 ± 0.065 | 2 ± 0.069 | 2.18 ± 0.099 | 1.53 ± 0.048

Row | Sequence | protein stability index (doa10∆) | protein stability index (pdr5∆) | protein stability index (san1∆) | protein stability index (ubr1∆)
28 | TLISRISSLFTITTILI [YML103C/NUP188] | 1.63 ± 0.068 | 1.8 ± 0.066 | 1.37 ± 0.088 | 2.02 ± 0.11
29 | DIYKSHLDNSKSVFSSA [RPN1] | 2.69 ± 0.056 | 2.77 ± 0.041 | 2.67 ± 0.051 | 2.66 ± 0.063
30 | YASLKLPNQIPGEYITT [YMR129W/POM152] | 1.97 ± 0.049 | 2.19 ± 0.059 | 2.07 ± 0.057 | 2.09 ± 0.036
31 | DGILRLYDALEPSDLRS [YGL100W/SEH1] | 3.02 ± 0.061 | 3.02 ± 0.051 | 2.77 ± 0.041 | 2.99 ± 0.042
32 | SVKSVKFPTRKIYMLYS [RPC34] | – | – | – | 3.58 ± 0.25
33 | EQFPFYLHDNASKVLLK [IRR1] | 2.45 ± 0.081 | 2.47 ± 0.065 | 1.91 ± 0.075 | 2.41 ± 0.052
34 | NFQISKKMDDYIHRIGR [PRP28] | 3.12 ± 0.24 | – | 3.21 ± 0.13 | –
35 | LQDLEEAKSFQDEAELV [RPC82] | 3.5 ± 0.12 | 3.3 ± 0.15 | 3.52 ± 0.14 | 3.72 ± 0.17
36 | PQVKIREASKDNVDFIL [RPB3] | 2.55 ± 0.065 | 2.12 ± 0.033 | 2.88 ± 0.073 | 1.77 ± 0.037
37 | PRLDAQAIKEASYVNIP [RPS0B] | 2.88 ± 0.041 | 2.84 ± 0.039 | 2.79 ± 0.044 | 2.52 ± 0.031
38 | LTKAAIVQIDATPFRQW [RPS8A] | 2.132 ± 0.016 | 2.453 ± 0.017 | 2.347 ± 0.021 | 2.362 ± 0.014
39 | LHLDYNFNLKPTKTLTT [PRP8] | 2.45 ± 0.034 | 2.7 ± 0.037 | 2.68 ± 0.039 | 2.5 ± 0.03
40 | DVHNGYILRYLHANGAS [COB] | 2.83 ± 0.096 | 2.37 ± 0.093 | 1.93 ± 0.11 | 2.5 ± 0.079
41 | SQQLLEILVTELTAQGY [RPN2] | 1.65 ± 0.077 | 2.19 ± 0.079 | 1.93 ± 0.13 | 1.77 ± 0.066
42 | CRGELKADIGKPGRMPF [CDC53] | 2.21 ± 0.071 | 2.65 ± 0.069 | 2.91 ± 0.085 | 2.97 ± 0.067
43 | DITFFGEALPNKFHKSI [SIR2] | 3 ± 0.11 | 2.98 ± 0.1 | 2.61 ± 0.082 | 2.64 ± 0.054
44 | RKIVFRCSECIKILGSE [RPN4] | 1.22 ± 0.14 | 1.88 ± 0.25 | – | –
45 | LDIINPGSVEEVDKSKL [YDL116W/NUP84] | 2.94 ± 0.1 | 3.44 ± 0.11 | 3.24 ± 0.13 | 3.53 ± 0.087
46 | IMLLQLELGSCFSQENI [SIN4] | 1.64 ± 0.046 | 1.87 ± 0.047 | 2.52 ± 0.067 | 2.27 ± 0.062
47 | MSETLPRSDDLEATWNF [CDC53] | 3.05 ± 0.17 | 3.39 ± 0.15 | – | 2.81 ± 0.15
48 | ERVWNICLYSSFQKNSL [AAR2] | 1.8 ± 0.059 | 2.01 ± 0.046 | 2.18 ± 0.1 | 2.02 ± 0.034
49 | LMRELLKMMKLIVDTHV [PRP8] | 1.9 ± 0.083 | 1.34 ± 0.06 | 2.29 ± 0.088 | 1.39 ± 0.06
50 | MVTENPQRLTVLRLATN [MCD1] | 2.25 ± 0.069 | 2.32 ± 0.056 | 2.3 ± 0.062 | 2.38 ± 0.051
51 | YKYGYDMPCDVLAKRMA [SCL1] | 2.51 ± 0.067 | 2.25 ± 0.049 | 2.61 ± 0.073 | 2.29 ± 0.058
52 | NKNNNNRHNLLNDVVSF [SWI1] | 2.99 ± 0.061 | 1.98 ± 0.036 | 1.99 ± 0.037 | 1.9 ± 0.034
53 | EDDLVGVVQMVTDNKTP [TAF14] | 2.72 ± 0.15 | 2.52 ± 0.19 | 2.84 ± 0.091 | –
54 | LQAIQEKLNKTDENTPS [ITC1] | 3.12 ± 0.098 | 3.08 ± 0.061 | 2.98 ± 0.047 | 2.89 ± 0.043
